Test results as given in publication PMC3569036 (FEBS letters, 2012).

Target: calmodulin (vertebrate CaM amino acid sequence, encoded by a rat cDNA) (rat, UniProt P0DP29 1-149)
Assay: cryo-EM structure

B1: bovine endothelial nitric oxide synthase (eNOS) with the phosphomimetic S1179D substitution (enzyme)
chain: MGNLKSVGQEPGPPCGLGLGLGLGLCGKQGPASPAPEPSRAPAPATPHAPDHSPAPNSPTLTRPPEGPKFPRVKNWELGSITYDTLCAQSQQDGPCTPRCCLGSLVLPRKLQTRPSPGPPPAEQLLSQARDFINQYYSSIKRSGSQAHEERLQEVEAEVASTGTYHLRESELVFGAKQAWRNAPRCVGRIQWGKLQVFDARDCSSAQEMFTYICNHIKYATNRGNLRSAITVFPQRAPGRGDFRIWNSQLVRYAGYRQQDGSVRGDPANVEITELCIQHGWTPGNGRFDVLPLLLQAPDEAPELFVLPPELVLEVPLEHPTLEWFAALGLRWYALPAVSNMLLEIGGLEFSAAPFSGWYMSTEIGTRNLCDPHRYNILEDVAVCMDLDTRTTSSLWKDKAAVEINLAVLHSFQLAKVTIVDHHAATVSFMKHLDNEQKARGGCPADWAWIVPPISGSLTPVFHQEMVNYILSPAFRYQPDPWKGSATKGAGITRKKTFKEVANAVKISASLMGTLMAKRVKATILYASETGRAQSYAQQLGRLFRKAFDPRVLCMDEYDVVSLEHEALVLVVTSTFGNGDPPENGESFAAALMEMSGPYNSSPRPEQHKSYKIRFNSVSCSDPLVSSWRRKRKESSNTDSAGALGTLRFCVFGLGSRAYPHFCAFARAVDTRLEELGGERLLQLGQGDELCGQEEAFRGWAKAAFQASCETFCVGEEAKAAAQDIFSPKRSWKRQRYRLSTQAEGLQLLPGLIHVHRRKMFQATVLSVENLQSSKSTRATILVRLDTAGQEGLQYQPGDHIGICPPNRPGLVEALLSRVEDPPPPTESVAVEQLEKGSPGGPPPSWVRDPRLPPCTLRQALTFFLDITSPPSPRLLRLLSTLAEEPSEQQELETLSQDPRRYEEWKWFRCPTLLEVLEQFPSVALPAPLLLTQLPLLQPRYYSVSSAPNAHPGEVHLTVAVLAYRTQDGLGPLHYGVCSTWLSQLKTGDPVPCFIRGAPSFRLPPDPYVPCILVGPGTGIAPFRGFWQERLHDIESKGLQPAPMTLVFGCRCSQLDHLYRDEVQDAQERGVFGRVLTAFSREPDSPKTYVQDILRTELAAEVHRVLCLERGHMFVCGDVTMATSVLQTVQRILATEGDMELDEAGDVIGVLRDQQRYHEDIFGLTLRTQEVTSRIRTQDFSLQERHLRGAVPWAFDPPGPDTPGP
- binding result: binds
